# Results: patent US5674833
# pKd: −log10 of the molar value.
# Molecular target: Alcalase® (Bacillus) (UniProt P00780)
# Assay: titration of Alcalase with inhibitor, residual activity on synthetic peptide substrates, non-linear regression; 0.1M Tris-HCl pH 8.6, 25 C
row,pKd,Substance
1,8.30,CI-2(M59P)
2,10.00,CI-2(V57E)
3,11.40,Wild-type barley subtilisin inhibitor CI-2
